This test addresses non-natural gp130:IL-11R:LIFR cytokine receptor complex on Ba/F3-gp130:IL-11R:LIFR cells (UniProt P40189).

Sequence of non-natural gp130:IL-11R:LIFR cytokine receptor complex on Ba/F3-gp130:IL-11R:LIFR cells (P40189 23-918, chain 1 of 3): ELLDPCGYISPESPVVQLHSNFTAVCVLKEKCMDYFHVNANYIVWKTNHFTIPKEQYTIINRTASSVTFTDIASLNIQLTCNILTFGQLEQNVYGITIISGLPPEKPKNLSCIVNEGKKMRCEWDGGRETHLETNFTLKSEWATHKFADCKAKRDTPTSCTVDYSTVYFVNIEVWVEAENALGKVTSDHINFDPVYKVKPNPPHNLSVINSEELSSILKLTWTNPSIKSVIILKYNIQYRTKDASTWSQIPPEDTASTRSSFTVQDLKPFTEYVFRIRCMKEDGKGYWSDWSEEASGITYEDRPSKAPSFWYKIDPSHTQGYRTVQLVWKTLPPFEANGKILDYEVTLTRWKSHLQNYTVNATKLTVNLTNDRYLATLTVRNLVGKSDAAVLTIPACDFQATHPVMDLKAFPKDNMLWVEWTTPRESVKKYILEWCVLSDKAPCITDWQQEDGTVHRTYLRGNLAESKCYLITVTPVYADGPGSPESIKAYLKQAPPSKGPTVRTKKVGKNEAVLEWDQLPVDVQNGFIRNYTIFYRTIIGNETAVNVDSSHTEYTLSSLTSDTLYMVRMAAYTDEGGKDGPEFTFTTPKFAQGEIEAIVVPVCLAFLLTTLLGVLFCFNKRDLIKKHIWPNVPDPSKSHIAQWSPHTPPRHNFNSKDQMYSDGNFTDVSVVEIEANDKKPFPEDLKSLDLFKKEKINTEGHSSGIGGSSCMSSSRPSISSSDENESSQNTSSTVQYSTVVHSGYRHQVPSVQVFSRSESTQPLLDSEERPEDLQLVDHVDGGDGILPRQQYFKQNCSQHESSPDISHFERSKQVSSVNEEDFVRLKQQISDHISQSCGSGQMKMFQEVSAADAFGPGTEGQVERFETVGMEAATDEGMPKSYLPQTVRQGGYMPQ
Sequence of non-natural gp130:IL-11R:LIFR cytokine receptor complex on Ba/F3-gp130:IL-11R:LIFR cells (Q14626 23-422, chain 2 of 3, further chain): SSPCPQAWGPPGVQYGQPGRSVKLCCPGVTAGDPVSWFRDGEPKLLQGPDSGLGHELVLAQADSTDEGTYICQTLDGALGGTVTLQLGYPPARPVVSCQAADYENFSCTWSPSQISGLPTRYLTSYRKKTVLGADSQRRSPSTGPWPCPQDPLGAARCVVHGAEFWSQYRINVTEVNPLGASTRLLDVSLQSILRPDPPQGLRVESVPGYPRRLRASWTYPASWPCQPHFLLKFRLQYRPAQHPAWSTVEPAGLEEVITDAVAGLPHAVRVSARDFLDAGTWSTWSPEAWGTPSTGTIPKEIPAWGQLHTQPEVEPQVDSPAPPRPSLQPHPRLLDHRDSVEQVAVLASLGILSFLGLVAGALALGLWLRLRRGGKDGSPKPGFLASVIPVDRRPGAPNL
Sequence of non-natural gp130:IL-11R:LIFR cytokine receptor complex on Ba/F3-gp130:IL-11R:LIFR cells (P42702 45-1097, chain 3 of 3, further chain): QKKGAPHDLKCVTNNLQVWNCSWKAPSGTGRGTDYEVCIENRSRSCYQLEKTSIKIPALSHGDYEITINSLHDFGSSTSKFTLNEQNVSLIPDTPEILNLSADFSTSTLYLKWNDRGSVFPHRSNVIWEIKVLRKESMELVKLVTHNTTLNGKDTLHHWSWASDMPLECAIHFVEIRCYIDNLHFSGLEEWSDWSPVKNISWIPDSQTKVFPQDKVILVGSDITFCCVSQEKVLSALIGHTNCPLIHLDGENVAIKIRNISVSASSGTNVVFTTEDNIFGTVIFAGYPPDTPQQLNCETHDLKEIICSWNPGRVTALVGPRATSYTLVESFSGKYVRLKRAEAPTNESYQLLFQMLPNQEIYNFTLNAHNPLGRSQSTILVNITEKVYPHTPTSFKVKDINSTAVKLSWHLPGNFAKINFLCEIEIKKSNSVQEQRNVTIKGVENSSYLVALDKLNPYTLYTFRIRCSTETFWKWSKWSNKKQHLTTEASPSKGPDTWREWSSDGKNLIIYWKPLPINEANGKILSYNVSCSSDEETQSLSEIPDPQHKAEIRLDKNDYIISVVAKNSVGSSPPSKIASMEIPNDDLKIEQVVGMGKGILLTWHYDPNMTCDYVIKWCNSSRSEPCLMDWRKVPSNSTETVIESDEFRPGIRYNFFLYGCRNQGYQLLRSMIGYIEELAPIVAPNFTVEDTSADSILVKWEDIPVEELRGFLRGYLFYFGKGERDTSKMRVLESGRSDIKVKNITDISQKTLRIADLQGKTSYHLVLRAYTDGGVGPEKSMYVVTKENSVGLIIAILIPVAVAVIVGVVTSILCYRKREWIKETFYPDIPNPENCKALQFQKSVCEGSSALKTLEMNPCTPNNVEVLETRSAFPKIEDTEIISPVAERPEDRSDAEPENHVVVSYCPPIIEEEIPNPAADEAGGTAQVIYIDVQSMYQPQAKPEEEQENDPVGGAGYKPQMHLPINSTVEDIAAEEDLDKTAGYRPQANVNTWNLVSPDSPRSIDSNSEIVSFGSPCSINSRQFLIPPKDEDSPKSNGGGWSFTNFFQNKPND

The substance “cytokimera GIL-11 (from UniProt P20809 22-57; P15018 64-88; P20809 73-110; P15018 119-138; P20809 129-161; P15018 172-189; P20809 180-199) (ligand)” returned a proliferation of Ba/F3-gp130:IL-11R:LIFR cells (CellTiter Blue), GIL-11 0.0005–500 ng/ml; EC50 of 1.44 ng/mL.

These data come from publication PMC10105715.
